Legend:
[1] = target: T1, yeast two-hybrid library clone encoding amino acids 103-277 of phospholipid scramblase 3 (human, UniProt Q9NRY6 103-277); assay: yeast two-hybrid
T1 construct: also called PLS3 clone; cDNA cloned from the yeast two-hybrid screen; not shown: fusion partner of the Clontech MatchMaker human liver library vector

c-abl kinase = c-abl kinase (UniProt P00519 1-1130, limits assumed); assay: co-immunoprecipitation with PLS3 antibody, Western blot with c-abl antibody
Chain of c-abl kinase (P00519 whole entry): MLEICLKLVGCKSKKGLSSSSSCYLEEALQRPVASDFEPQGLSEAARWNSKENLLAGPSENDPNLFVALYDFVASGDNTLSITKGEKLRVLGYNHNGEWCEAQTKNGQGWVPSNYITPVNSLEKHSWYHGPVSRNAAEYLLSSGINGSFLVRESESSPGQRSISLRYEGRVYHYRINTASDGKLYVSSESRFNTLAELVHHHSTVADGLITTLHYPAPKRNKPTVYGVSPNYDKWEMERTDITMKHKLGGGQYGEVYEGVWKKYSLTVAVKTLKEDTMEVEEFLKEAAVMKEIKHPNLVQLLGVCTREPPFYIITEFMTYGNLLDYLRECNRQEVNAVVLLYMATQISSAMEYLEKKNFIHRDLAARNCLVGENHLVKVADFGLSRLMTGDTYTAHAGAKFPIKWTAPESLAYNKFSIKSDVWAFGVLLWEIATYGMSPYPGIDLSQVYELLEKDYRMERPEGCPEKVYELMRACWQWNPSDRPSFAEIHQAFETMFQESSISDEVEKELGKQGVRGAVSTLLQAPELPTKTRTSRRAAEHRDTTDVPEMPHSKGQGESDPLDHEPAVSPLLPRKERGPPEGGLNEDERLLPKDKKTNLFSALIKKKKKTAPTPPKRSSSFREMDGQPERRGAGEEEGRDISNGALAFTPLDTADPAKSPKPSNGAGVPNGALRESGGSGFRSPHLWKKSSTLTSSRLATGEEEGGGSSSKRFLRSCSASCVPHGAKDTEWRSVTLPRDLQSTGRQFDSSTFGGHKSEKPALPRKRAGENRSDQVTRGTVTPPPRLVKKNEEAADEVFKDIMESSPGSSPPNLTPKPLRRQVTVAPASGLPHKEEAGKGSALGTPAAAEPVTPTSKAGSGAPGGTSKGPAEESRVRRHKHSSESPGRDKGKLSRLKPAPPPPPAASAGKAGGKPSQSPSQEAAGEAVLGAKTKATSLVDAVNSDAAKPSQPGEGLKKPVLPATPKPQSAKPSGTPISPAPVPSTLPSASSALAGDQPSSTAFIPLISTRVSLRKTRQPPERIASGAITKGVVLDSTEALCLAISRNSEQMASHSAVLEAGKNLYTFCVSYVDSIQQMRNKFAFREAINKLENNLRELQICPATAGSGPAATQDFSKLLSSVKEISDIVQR

T1 sequence (Q9NRY6 103-277): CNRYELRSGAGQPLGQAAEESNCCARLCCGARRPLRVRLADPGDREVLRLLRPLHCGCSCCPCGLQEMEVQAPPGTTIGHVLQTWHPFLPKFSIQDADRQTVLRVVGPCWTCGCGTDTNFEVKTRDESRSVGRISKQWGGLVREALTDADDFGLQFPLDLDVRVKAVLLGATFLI

B1: lamin C control bait (pAS2-lamin C) (other, UniProt P02545-2 66-230, looked up)
chain: SEEVVSREVSGIKAAYEAELGDARKTLDSVAKERARLQLELSKVREEFKELKARNTKKEGDLIAAQARLKDLEALLNSKEAALSTALSEKRTLEGELHDLRGQVAKLEAALGEAKKQLQDEMLRRVDAENRLQTMKEELDFQKNIYSEELRETKRRHETRLVEID
notes: also called control bait lamin C; not shown: bait fusion partner encoded by the pAS2 vector
binding result [1]: no binding

B2: phospholipid scramblase 3 (PLS3), human, isoform not stated (enzyme)
chain: not shown
modifications: phosphothreonine, position not stated (shown by the anti-PT blot of immunoprecipitated PLS3)
notes: also called endogenous PLS3; wild-type PLS3
binding result (c-abl kinase): no binding

From patent publication US20060172958A1 (published 2006)
